Target: MukB, full length, wild type (E. coli) (UniProt P22523)
Assay: fluorescence correlation spectroscopy

MBP-ParC^CTD (ParC C-terminal domain with N-terminal MBP fusion) (domain or fragment), sequence (P0AFI2 whole entry, the tested form may be a part): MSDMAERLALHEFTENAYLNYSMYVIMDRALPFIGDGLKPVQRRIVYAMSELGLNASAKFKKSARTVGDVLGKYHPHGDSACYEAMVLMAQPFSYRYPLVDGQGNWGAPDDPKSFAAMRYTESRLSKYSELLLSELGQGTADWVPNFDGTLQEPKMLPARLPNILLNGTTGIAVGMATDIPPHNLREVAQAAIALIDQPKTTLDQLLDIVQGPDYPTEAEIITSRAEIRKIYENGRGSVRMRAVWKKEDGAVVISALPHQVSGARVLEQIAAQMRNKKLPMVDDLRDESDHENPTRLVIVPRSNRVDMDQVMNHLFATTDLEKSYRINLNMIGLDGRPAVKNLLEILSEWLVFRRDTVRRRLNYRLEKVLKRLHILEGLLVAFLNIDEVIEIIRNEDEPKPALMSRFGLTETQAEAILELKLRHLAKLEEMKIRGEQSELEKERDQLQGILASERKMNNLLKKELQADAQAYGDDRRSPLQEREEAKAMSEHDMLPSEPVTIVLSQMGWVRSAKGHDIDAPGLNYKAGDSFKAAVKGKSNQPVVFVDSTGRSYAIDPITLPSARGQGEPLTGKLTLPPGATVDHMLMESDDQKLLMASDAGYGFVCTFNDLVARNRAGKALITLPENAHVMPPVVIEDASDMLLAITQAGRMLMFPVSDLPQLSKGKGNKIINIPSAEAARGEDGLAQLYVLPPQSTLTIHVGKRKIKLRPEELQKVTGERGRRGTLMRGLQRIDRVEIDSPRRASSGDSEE
MukB, full length, wild type (E. coli), sequence (P22523 whole entry): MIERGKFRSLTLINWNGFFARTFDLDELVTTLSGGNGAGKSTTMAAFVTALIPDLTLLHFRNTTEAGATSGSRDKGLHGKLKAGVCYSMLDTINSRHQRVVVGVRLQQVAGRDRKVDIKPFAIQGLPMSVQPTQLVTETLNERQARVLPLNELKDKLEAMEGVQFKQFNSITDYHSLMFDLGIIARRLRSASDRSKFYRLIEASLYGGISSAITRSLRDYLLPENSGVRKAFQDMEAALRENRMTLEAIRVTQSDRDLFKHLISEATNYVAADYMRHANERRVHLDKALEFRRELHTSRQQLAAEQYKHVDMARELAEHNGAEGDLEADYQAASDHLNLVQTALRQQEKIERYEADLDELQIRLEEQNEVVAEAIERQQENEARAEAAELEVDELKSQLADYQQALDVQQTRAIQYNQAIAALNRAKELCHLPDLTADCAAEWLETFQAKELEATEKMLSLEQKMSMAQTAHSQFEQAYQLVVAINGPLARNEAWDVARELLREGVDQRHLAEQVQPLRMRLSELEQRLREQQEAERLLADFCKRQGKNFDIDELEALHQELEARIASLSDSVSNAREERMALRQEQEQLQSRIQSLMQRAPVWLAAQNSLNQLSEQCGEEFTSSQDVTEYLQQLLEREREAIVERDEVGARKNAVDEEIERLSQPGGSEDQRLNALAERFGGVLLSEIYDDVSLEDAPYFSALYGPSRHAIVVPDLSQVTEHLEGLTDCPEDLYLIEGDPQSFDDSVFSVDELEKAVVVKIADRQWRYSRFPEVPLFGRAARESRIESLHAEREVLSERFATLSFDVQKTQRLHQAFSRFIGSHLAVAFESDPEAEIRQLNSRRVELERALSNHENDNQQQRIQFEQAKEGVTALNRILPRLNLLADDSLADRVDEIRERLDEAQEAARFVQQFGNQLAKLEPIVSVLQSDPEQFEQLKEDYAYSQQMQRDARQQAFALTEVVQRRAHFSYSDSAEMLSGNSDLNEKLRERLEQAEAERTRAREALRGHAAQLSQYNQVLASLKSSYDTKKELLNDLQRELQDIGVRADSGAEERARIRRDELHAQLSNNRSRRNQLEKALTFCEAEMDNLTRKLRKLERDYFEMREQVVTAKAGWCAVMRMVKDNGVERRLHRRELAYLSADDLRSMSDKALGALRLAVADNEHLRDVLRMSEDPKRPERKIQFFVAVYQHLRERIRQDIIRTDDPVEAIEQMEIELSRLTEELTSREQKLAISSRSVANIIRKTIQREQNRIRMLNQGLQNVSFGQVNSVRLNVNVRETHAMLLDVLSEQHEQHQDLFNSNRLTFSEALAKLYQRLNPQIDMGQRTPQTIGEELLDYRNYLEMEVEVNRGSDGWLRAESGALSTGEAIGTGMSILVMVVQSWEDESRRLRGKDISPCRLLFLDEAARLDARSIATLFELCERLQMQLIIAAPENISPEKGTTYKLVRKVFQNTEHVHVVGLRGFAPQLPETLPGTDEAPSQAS

How did the fold decrease in MatP-Cy3B binding to MukB at a 10-fold excess of competitor turn out when “MBP-ParC^CTD (ParC C-terminal domain with N-terminal MBP fusion) (domain or fragment)” was run?
The fold decrease in MatP-Cy3B binding to MukB at a 10-fold excess of competitor was 3 fold.
